One substance from article PMC2518858 can be followed below.

The target of test [1] is MC179, the CD36-binding portion (M2 subdomain) of the CIDR1α domain of PfEMP1 from the Malayan Camp (MC) strain of P. falciparum (Plasmodium falciparum (Malayan Camp strain)). The test is described as follows: SEC; refolded MC179 on a Superdex 75 size exclusion column; species with the mobility of dimers separated from monomers.
Test [2] shares this target. The test is described as follows: cross-linking; chemical cross-linking of MC179 in solution (data not shown).

What is called stoichiometry N is a count of units in the complex or per binding partner.

On to “MC179, the CD36-binding portion (M2 subdomain) of the CIDR1α domain of PfEMP1 from the Malayan Camp (MC) strain of P. falciparum (domain or fragment)”, for which the stoichiometry N in test [1] and in test [2] was 2 in each case.
